Measured values reported in patent publication US20250011363A1, “OPTIMIZED SHORTENED PEPTIDE THAT BINDS TO ACETYLCHOLINE RECEPTOR, AND USE THEREOF” (SKINMED CO., LTD., priority 2021, published 2025).

B1: 6mer-1-9 (peptide)
peptide: RKSFCK
B2: 6mer-1-2 (peptide)
peptide: RKQILR
B3: 6mer-1-7 (peptide)
peptide: KRQYSK
B4: 6mer-1-5 (peptide)
peptide: KRQIRK
B5: 6mer-1-4 (peptide)
peptide: RKSFYK
B6: 6mer-1-6 (peptide)
peptide: RKSRCK
B7: 6mer-1-8 (peptide)
peptide: RKRRRK
B8: 6mer-1-10 (peptide)
peptide: KRWRLK
B9: 6mer-1-1 (peptide)
peptide: KKVISK
B10: 6mer-1-3 (peptide)
peptide: RKRRSR
B11: 6mer-2-39 (peptide)
peptide: RWRYRK
B12: 6mer-2-4 (peptide)
peptide: RSYYRR
B13: 6mer-2-57 (peptide)
peptide: KQRCRR
B14: 6mer-2-58 (peptide)
peptide: KRLQRK
B15: 6mer-2-61 (peptide)
peptide: RGFQRK
B16: 6mer-2-41 (peptide)
peptide: KQLCKR
B17: 6mer-2-46 (peptide)
peptide: KLYLKR
B18: 6mer-2-5 (peptide)
peptide: RWVSKR
B19: 6mer-2-24 (peptide)
peptide: KGIQRK
B20: 6mer-2-54 (peptide)
peptide: KGRRRR
B21: 6mer-2-66 (peptide)
peptide: RVIRRR
B22: 6mer-2-16 (peptide)
peptide: KGVCRR
B23: 6mer-2-67 (peptide)
peptide: KLFCKK
B24: 6mer-2-52 (peptide)
peptide: KRQRKK
B25: 6mer-2-56 (peptide)
peptide: RSQLRR
B26: 6mer-2-30 (peptide)
peptide: RQFYKK
B27: 6mer-2-45 (peptide)
peptide: RSLTKK
B28: 6mer-2-35 (peptide)
peptide: RWISRK
B29: 6mer-2-13 (peptide)
peptide: RQYTRK
B30: 6mer-2-8 (peptide)
peptide: KSLQKK
B31: 6mer-2-34 (peptide)
peptide: KVFRRK
B32: 6mer-2-37 (peptide)
peptide: KLLYRK
B33: 6mer-2-50 (peptide)
peptide: RSQSKR
B34: 6mer-2-68 (peptide)
peptide: KGRRRK
B35: 6mer-2-2 (peptide)
peptide: RWYLKR
B36: 6mer-2-19 (peptide)
peptide: RSFSKK
B37: 6mer-2-60 (peptide)
peptide: RRLSKK
B38: 6mer-2-31 (peptide)
peptide: KSYQRK
B39: 6mer-2-12 (peptide)
peptide: RQFQRK
B40: 6mer-2-26 (peptide)
peptide: RWRRKK
B41: 6mer-2-6 (peptide)
peptide: KSICRR
B42: 6mer-2-42 (peptide)
peptide: KLLSKR
B43: 6mer-2-17 (peptide)
peptide: RWVTRR
B44: 6mer-2-21 (peptide)
peptide: RLFTRK
B45: 6mer-2-47 (peptide)
peptide: KLQSRR
B46: 6mer-2-65 (peptide)
peptide: KGVCKR
B47: 6mer-2-33 (peptide)
peptide: RQFRKK
B48: 6mer-2-44 (peptide)
peptide: KSVRRK
B49: 6mer-2-49 (peptide)
peptide: RLRCRK
B50: 6mer-2-38 (peptide)
peptide: RSYYKR
B51: 6mer-2-55 (peptide)
peptide: RLFYKK
B52: 6mer-2-48 (peptide)
peptide: RRFRKK
B53: 6mer-2-62 (peptide)
peptide: RLVTKR
B54: 6mer-2-40 (peptide)
peptide: RRYRKK
B55: 6mer-2-59 (peptide)
peptide: RVLSRK
B56: 6mer-2-1200 (peptide)
peptide: RHHNRR
B57: 6mer-2-20 (peptide)
peptide: RVQTRR
B58: 6mer-2-23 (peptide)
peptide: RWVRKK
B59: 6mer-2-43 (peptide)
peptide: RVITKR
B60: 6mer-2-22 (peptide)
peptide: RQIRKK
B61: 6mer-2-7 (peptide)
peptide: KSRCRK
B62: 6mer-2-36 (peptide)
peptide: RRLQKK
B63: 6mer-2-27 (peptide)
peptide: KVIRRK
B64: 6mer-2-28 (peptide)
peptide: KVLSRK
B65: 6mer-2-9 (peptide)
peptide: KLICRK
B66: 6mer-2-11 (peptide)
peptide: RQYQRR
B67: 6mer-2-64 (peptide)
peptide: KSVSKK
B68: 6mer-2-51 (peptide)
peptide: KQFLKK
B69: 6mer-2-25 (peptide)
peptide: KQVQKR
B70: 6mer-2-10 (peptide)
peptide: KVFSKK
B71: 6mer-2-53 (peptide)
peptide: KSLSRR
B72: 6mer-2-1199 (peptide)
peptide: RCTNKR
B73: 6mer-2-15 (peptide)
peptide: KQVRKR
B74: 6mer-2-32 (peptide)
peptide: RRLCRK
B75: 6mer-2-29 (peptide)
peptide: RSQRKR
B76: 6mer-2-14 (peptide)
peptide: RGRQKK
B77: 6mer-2-3 (peptide)
peptide: KVYSRK
B78: 6mer-2-18 (peptide)
peptide: RSILRR
B79: 6mer-2-63 (peptide)
peptide: KSFRKR

What follows are binders tested against acetylcholine receptor (assay: SPR, peptide at 10 uM on immobilised AchR).

Row | Binding affinity (RU) | Binder
1 | 154 | B1
2 | 142 | B2
3 | 126 | B3
4 | 135 | B4
5 | 139 | B5
6 | 153 | B6
7 | 125 | B7
8 | 139 | B8
9 | 122 | B9
10 | 154 | B10

These binders were tested against acetylcholine receptor (assay: SPR, AchR immobilized on chip, peptide at 10 uM).

Row | Binding affinity [RU] | Binder
11 | 137 | B11
12 | 125 | B12
13 | 139 | B13
14 | 122 | B14
15 | 148 | B15
16 | 142 | B16
17 | 153 | B17
18 | 124 | B18
19 | 141 | B19
20 | 124 | B20
21 | 123 | B21
22 | 121 | B22
23 | 124 | B23
24 | 136 | B24
25 | 149 | B25
26 | 139 | B26
27 | 121 | B27
28 | 148 | B28
29 | 123 | B29
30 | 135 | B30
31 | 124 | B31
32 | 148 | B32
33 | 125 | B33

Row | Binding affinity [RU] | Binder
34 | 142 | B34
35 | 139 | B35
36 | 135 | B36
37 | 148 | B37
38 | 121 | B38
39 | 147 | B39
40 | 121 | B40
41 | 122 | B41
42 | 126 | B42
43 | 142 | B43
44 | 141 | B44
45 | 148 | B45
46 | 148 | B46
47 | 142 | B47
48 | 145 | B48
49 | 154 | B49
50 | 136 | B50
51 | 125 | B51
52 | 153 | B52
53 | 147 | B53
54 | 153 | B54
55 | 123 | B55
56 | 30 | B56

Row | Binding affinity [RU] | Binder
57 | 137 | B57
58 | 148 | B58
59 | 146 | B59
60 | 124 | B60
61 | 126 | B61
62 | 131 | B62
63 | 128 | B63
64 | 142 | B64
65 | 139 | B65
66 | 121 | B66
67 | 136 | B67
68 | 139 | B68
69 | 148 | B69
70 | 124 | B70
71 | 125 | B71
72 | 27 | B72
73 | 133 | B73
74 | 139 | B74
75 | 142 | B75
76 | 153 | B76
77 | 148 | B77
78 | 124 | B78
79 | 121 | B79
